Residue numbers refer to the chain shown, from its start. Numbered stars: 1 amine (or outer) side, 2 acyl side, 3 side chain; on linkers, the order of the positions; unused ones are H or OH. Bridge positions count the residues as written; N and C are the ends. Side chains are listed from the residue outwards. Ends that are not written are not given here. * marks the point of attachment. C20 diacid = O=C(O)CCCCCCCCCCCCCCCCCCC(=O)*; γGlu = O=C(O)[C@H](CCC(=O)[*:2])N[*:1]; AEEA = NCCOCCOCC(=O)O
T1: human calcitonin receptor (human, UniProt P30988 25-474)
T1 construct: whole, on cells; also called hCTR; hCT
T1 sequence (looked up): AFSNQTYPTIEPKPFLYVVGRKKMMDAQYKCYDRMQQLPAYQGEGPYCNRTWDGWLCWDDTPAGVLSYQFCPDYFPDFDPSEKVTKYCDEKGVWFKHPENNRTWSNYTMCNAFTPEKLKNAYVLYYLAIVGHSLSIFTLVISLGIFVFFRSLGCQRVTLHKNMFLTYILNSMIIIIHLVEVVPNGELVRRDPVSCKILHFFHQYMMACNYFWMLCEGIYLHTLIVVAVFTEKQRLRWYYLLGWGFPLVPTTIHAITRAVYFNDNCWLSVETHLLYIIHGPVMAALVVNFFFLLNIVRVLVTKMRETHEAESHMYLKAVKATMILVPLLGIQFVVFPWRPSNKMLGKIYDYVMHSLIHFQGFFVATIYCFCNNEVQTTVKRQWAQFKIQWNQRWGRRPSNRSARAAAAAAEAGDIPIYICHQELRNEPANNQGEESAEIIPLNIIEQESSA

T2: human calcitonin receptor (human, UniProt P30988 25-474)
T2 construct: whole, on cells; also called hCTR; hCT
T2 sequence (looked up): T1 sequence (looked up)

B1: N^α1-[(4S)-4-carboxy-4-(19-carboxynonadecanoylamino)butanoyl]-[Glu14,Arg17,Pro21,Pro27]-h-amylin (peptide)
peptide: KCNTATCATQRLAEFLRHSSPNFGAIPSSTNVGSNTY
modifications: C20 diacid-gGlu on the alpha amino group of the N-terminal residue; disulfide bridge Cys2-Cys7; C-terminal amide
notes: also called compound 9
B2: N^α1-[(4S)-4-carboxy-4-(19-carboxynonadecanoylamino)butanoyl]-[Arg17,Pro21,Pro27,Pro31,Glu35]-h-amylin (peptide)
peptide: {C20 diacid-γGlu}-KCNTATCATQRLANFLRHSSPNFGAIPSSTPVGSETY-NH2
modifications: disulfide 2-7
SMILES: CC[C@H](C)[C@H](NC(=O)[C@H](C)NC(=O)CNC(=O)[C@H](Cc1ccccc1)NC(=O)[C@H](CC(N)=O)NC(=O)[C@@H]1CCCN1C(=O)[C@H](CO)NC(=O)[C@H](CO)NC(=O)[C@H](Cc1c[nH]cn1)NC(=O)[C@H](CCCNC(=N)N)NC(=O)[C@H](CC(C)C)NC(=O)[C@H](Cc1ccccc1)NC(=O)[C@H](CC(N)=O)NC(=O)[C@H](C)NC(=O)[C@H](CC(C)C)NC(=O)[C@H](CCCNC(=N)N)NC(=O)[C@H](CCC(N)=O)NC(=O)[C@@H](NC(=O)[C@H](C)NC(=O)[C@@H]1CSSC[C@H](NC(=O)[C@H](CCCCN)NC(=O)CC[C@H](NC(=O)CCCCCCCCCCCCCCCCCCC(=O)O)C(=O)O)C(=O)N[C@@H](CC(N)=O)C(=O)N[C@@H]([C@@H](C)O)C(=O)N[C@@H](C)C(=O)N[C@@H]([C@@H](C)O)C(=O)N1)[C@@H](C)O)C(=O)N1CCC[C@H]1C(=O)N[C@@H](CO)C(=O)N[C@@H](CO)C(=O)N[C@H](C(=O)N1CCC[C@H]1C(=O)N[C@H](C(=O)NCC(=O)N[C@@H](CO)C(=O)N[C@@H](CCC(=O)O)C(=O)N[C@H](C(=O)N[C@@H](Cc1ccc(O)cc1)C(N)=O)[C@@H](C)O)C(C)C)[C@@H](C)O
notes: also called compound 28
B3: N^α1-[2-[2-[2-[[2-[2-[2-[[(4S)-4-carboxy-4-(19-carboxynonadecanoylamino)butanoyl]amino]ethoxy]ethoxy]acetyl]amino]ethoxy]ethoxy]acetyl]-[Glu14,Arg17,Pro21,Pro27 … (peptide)
peptide: {C20 diacid-γGlu-AEEA-AEEA}-KCNTATCATQRLAEFLRHSSPNFGAIPSSTNVGSNTP-NH2
modifications: disulfide 2-7
SMILES: CC[C@H](C)[C@H](NC(=O)[C@H](C)NC(=O)CNC(=O)[C@H](Cc1ccccc1)NC(=O)[C@H](CC(N)=O)NC(=O)[C@@H]1CCCN1C(=O)[C@H](CO)NC(=O)[C@H](CO)NC(=O)[C@H](Cc1c[nH]cn1)NC(=O)[C@H](CCCNC(=N)N)NC(=O)[C@H](CC(C)C)NC(=O)[C@H](Cc1ccccc1)NC(=O)[C@H](CCC(=O)O)NC(=O)[C@H](C)NC(=O)[C@H](CC(C)C)NC(=O)[C@H](CCCNC(=N)N)NC(=O)[C@H](CCC(N)=O)NC(=O)[C@@H](NC(=O)[C@H](C)NC(=O)[C@@H]1CSSC[C@H](NC(=O)[C@H](CCCCN)NC(=O)COCCOCCNC(=O)COCCOCCNC(=O)CC[C@H](NC(=O)CCCCCCCCCCCCCCCCCCC(=O)O)C(=O)O)C(=O)N[C@@H](CC(N)=O)C(=O)N[C@@H]([C@@H](C)O)C(=O)N[C@@H](C)C(=O)N[C@@H]([C@@H](C)O)C(=O)N1)[C@@H](C)O)C(=O)N1CCC[C@H]1C(=O)N[C@@H](CO)C(=O)N[C@@H](CO)C(=O)N[C@H](C(=O)N[C@@H](CC(N)=O)C(=O)N[C@H](C(=O)NCC(=O)N[C@@H](CO)C(=O)N[C@@H](CC(N)=O)C(=O)N[C@H](C(=O)N1CCC[C@H]1C(N)=O)[C@@H](C)O)C(C)C)[C@@H](C)O
notes: also called compound 20
B4: N^α1-[(4S)-4-carboxy-4-(19-carboxynonadecanoylamino)butanoyl]-[Arg17,Pro21,Pro27,Glu35]-h-amylin (peptide)
peptide: B1 peptide with E14N, N35E
modifications: C20 diacid-gGlu on the alpha amino group of the N-terminal residue; disulfide bridge Cys2-Cys7; C-terminal amide
notes: also called compound 23
B5: N^α1-[(4S)-4-carboxy-4-(19-carboxynonadecanoylamino)butanoyl]-[Asp14,Arg17,Pro21,Pro27,Pro37]-h-amylin (peptide)
peptide: {C20 diacid-γGlu}-KCNTATCATQRLADFLRHSSPNFGAIPSSTNVGSNTP-NH2
modifications: disulfide 2-7
SMILES: CC[C@H](C)[C@H](NC(=O)[C@H](C)NC(=O)CNC(=O)[C@H](Cc1ccccc1)NC(=O)[C@H](CC(N)=O)NC(=O)[C@@H]1CCCN1C(=O)[C@H](CO)NC(=O)[C@H](CO)NC(=O)[C@H](Cc1c[nH]cn1)NC(=O)[C@H](CCCNC(=N)N)NC(=O)[C@H](CC(C)C)NC(=O)[C@H](Cc1ccccc1)NC(=O)[C@H](CC(=O)O)NC(=O)[C@H](C)NC(=O)[C@H](CC(C)C)NC(=O)[C@H](CCCNC(=N)N)NC(=O)[C@H](CCC(N)=O)NC(=O)[C@@H](NC(=O)[C@H](C)NC(=O)[C@@H]1CSSC[C@H](NC(=O)[C@H](CCCCN)NC(=O)CC[C@H](NC(=O)CCCCCCCCCCCCCCCCCCC(=O)O)C(=O)O)C(=O)N[C@@H](CC(N)=O)C(=O)N[C@@H]([C@@H](C)O)C(=O)N[C@@H](C)C(=O)N[C@@H]([C@@H](C)O)C(=O)N1)[C@@H](C)O)C(=O)N1CCC[C@H]1C(=O)N[C@@H](CO)C(=O)N[C@@H](CO)C(=O)N[C@H](C(=O)N[C@@H](CC(N)=O)C(=O)N[C@H](C(=O)NCC(=O)N[C@@H](CO)C(=O)N[C@@H](CC(N)=O)C(=O)N[C@H](C(=O)N1CCC[C@H]1C(N)=O)[C@@H](C)O)C(C)C)[C@@H](C)O
notes: also called compound 10
B6: N^α1-[(4S)-4-carboxy-4-(19-carboxynonadecanoylamino)butanoyl]-[Arg17,Pro21,Pro27,Arg34]-h-amylin (peptide)
peptide: B1 peptide with E14N, S34R
modifications: C20 diacid-gGlu on the alpha amino group of the N-terminal residue; disulfide bridge Cys2-Cys7; C-terminal amide
notes: also called compound 39
B7: N^α1-[(4S)-4-carboxy-4-(19-carboxynonadecanoylamino)butanoyl]-[Arg17,Pro21,Pro27,His34]-h-amylin (peptide)
peptide: B1 peptide with E14N, S34H
modifications: C20 diacid-gGlu on the alpha amino group of the N-terminal residue; disulfide bridge Cys2-Cys7; C-terminal amide
notes: also called compound 40
B8: N^ε1-[(4S)-4-carboxy-4-(19-carboxynonadecanoylamino)butanoyl]-[Arg17,Pro21,Pro27]-h-amylin (peptide)
peptide: K([γGlu-C20 diacid])CNTATCATQRLANFLRHSSPNFGAIPSSTNVGSNTY-NH2
modifications: disulfide 2-7; N-terminus assumed
SMILES: CC[C@H](C)[C@H](NC(=O)[C@H](C)NC(=O)CNC(=O)[C@H](Cc1ccccc1)NC(=O)[C@H](CC(N)=O)NC(=O)[C@@H]1CCCN1C(=O)[C@H](CO)NC(=O)[C@H](CO)NC(=O)[C@H](Cc1c[nH]cn1)NC(=O)[C@H](CCCNC(=N)N)NC(=O)[C@H](CC(C)C)NC(=O)[C@H](Cc1ccccc1)NC(=O)[C@H](CC(N)=O)NC(=O)[C@H](C)NC(=O)[C@H](CC(C)C)NC(=O)[C@H](CCCNC(=N)N)NC(=O)[C@H](CCC(N)=O)NC(=O)[C@@H](NC(=O)[C@H](C)NC(=O)[C@@H]1CSSC[C@H](NC(=O)[C@@H](N)CCCCNC(=O)CC[C@H](NC(=O)CCCCCCCCCCCCCCCCCCC(=O)O)C(=O)O)C(=O)N[C@@H](CC(N)=O)C(=O)N[C@@H]([C@@H](C)O)C(=O)N[C@@H](C)C(=O)N[C@@H]([C@@H](C)O)C(=O)N1)[C@@H](C)O)C(=O)N1CCC[C@H]1C(=O)N[C@@H](CO)C(=O)N[C@@H](CO)C(=O)N[C@H](C(=O)N[C@@H](CC(N)=O)C(=O)N[C@H](C(=O)NCC(=O)N[C@@H](CO)C(=O)N[C@@H](CC(N)=O)C(=O)N[C@H](C(=O)N[C@@H](Cc1ccc(O)cc1)C(N)=O)[C@@H](C)O)C(C)C)[C@@H](C)O
notes: also called compound 48

These binders were tested against T1, human calcitonin receptor (assay: ratio of IC50 at hCTR to IC50 at the human amylin receptor (reference)).
Procedure: The resulting pellet was resuspended, homogenized and centrifuged (20.000 rpm, 15 min) in a buffer containing 20 mM Na-HEPES and 0.1 mM EDTA (pH 7.4, buffer 2). The resulting pellet was resuspended in buffer 2 and protein concentration was measured (BCA protein Assay, Pierce). The homogenate was kept cold during the whole procedure. The membranes were kept at −80° C. until use. The assay was performed in a 384 well Optiplate (PerkinElmer) in a total volume of 40 ul. Membranes were mixed with SPA beads. Final concentration of membranes 35 ng/μL final and SPA beads was 0.05 mg/well. Test-compounds were dissolved in DMSO and further diluted in assay buffer (50 mM Hepes, pH 7.4, 1 mM CaCl2, 5 mM MgCl₂, 0.1% OA and 0.02% Tween20). […] The final mixture was incubated with shaking at 400 rpm for 120 min at 25° C. prior to centrifugation (1500 rpm, 10 min). Samples were analyzed on TopCounter™ (Packard). The IC₅₀ was calculated using (one site binding competition analysis) GraphPad Prism5 as a measure of receptor affinity.
Membranes were prepared in the following way; the cells were rinsed with PBS and incubated with Versene for approximately 5 min before harvesting. The cells were flushed with PBS and the cell-suspension was centrifuged for 5 min at 1000 rpm. Cells were homogenized (Ultrathurrax) in a buffer containing 20 mM Na-HEPES and 10 mM EDTA (pH 7.4) and centrifuged at 20.000 rpm for 15 min. The resulting pellet was resuspended, homogenized and centrifuged (20.000 rpm, 15 min) in a buffer containing 20 mM Na-HEPES and 0.1 mM EDTA (pH 7.4, buffer 2). The resulting pellet was resuspended in buffer 2 and protein concentration was measured (BCA protein Assay, Pierce). The homogenate was kept cold during the whole procedure. The membranes were kept at −80° C. until use. Assay was performed in a 384 well Optiplate (PerkinElmer) in a total volume of 40 ul. Membranes were mixed with SPA beads.

Ratio hCT/hAmylin binding | Binder
8 | B1
20.5 | B2
3.6 | B3
25 | B4
1.2 | B5
29 | B6
31.1 | B7

What follows are binders tested against T2, human calcitonin receptor (assay: SPA competition with 125I-calcitonin, membranes of BHK hCTR cells (Assay VII)).
Outline: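 BHK hCTR membranes 35 ng/μL + SPA beads 0.05 mg/well; buffer 50 mM Hepes pH 7.4, 1 mM CaCl2, 5 mM MgCl₂, 0.1% OA, 0.02% Tween20. 120 min, 25° C., shaking. Scintillation count; IC50 by one-site binding competition.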

IC50 [nM] | Binder
30.9 | B8

The binders below were run against T1, human calcitonin receptor (assay: SPA competition binding, membranes with human calcitonin receptor, displacement of 125I-calcitonin (Assay VII)).
Procedure: Membranes were prepared in the following way; the cells were rinsed with PBS and incubated with Versene for approximately 5 min before harvesting. The cells were flushed with PBS and the cell-suspension was centrifuged for 5 min at 1000 rpm. Cells were homogenized (Ultrathurrax) in a buffer containing 20 mM Na-HEPES and 10 mM EDTA (pH 7.4) and centrifuged at 20.000 rpm for 15 min. The resulting pellet was resuspended, homogenized and centrifuged (20.000 rpm, 15 min) in a buffer containing 20 mM Na-HEPES and 0.1 mM EDTA (pH 7.4, buffer 2). The resulting pellet was resuspended in buffer 2 and protein concentration was measured (BCA protein Assay, Pierce). The homogenate was kept cold during the whole procedure. The membranes were kept at −80° C. until use. Assay was performed in a 384 well Optiplate (PerkinElmer) in a total volume of 40 ul. Membranes were mixed with SPA beads. Final concentration of membranes 35 ng/μL final and Final concentration of SPA beads was 0.05 mg/well. Test-compounds were dissolved in DMSO and further diluted in assay buffer (50 mM Hepes, pH 7.4, 1 mM CaCl2, 5 mM MgCl₂, 0.1% OA and 0.02% Tween20). […] The final mixture was incubated for 120 min with shaking at 400 rpm at 25° C. prior to centrifugation (1500 rpm, 10 min). Samples were analyzed on TopCounter™ (Packard). The […] was calculated using (one site binding competition analysis) GraphPad Prism5 as a measure of receptor affinity.

IC50 [nM] | Binder
1.14 | B1
12.5 | B2
0.787 | B3
21.8 | B4
0.099 | B5
19.3 | B6
17.1 | B7

Reference: patent US20140087995A1 (published 2014)
